Test results: patent US20150140001A1 (Scripps Research, published 2015)

T1: recombinant mouse clec14a CTLD Fc fusion protein (mCTLD-Fc) (mouse; human, UniProt Q8VCP9 31-172)
T1 construct: also called mouse CTLD-Fc; not shown: hinge and CH2-CH3 domain of human IgG1, encoded 3' of the cloning site of the modified pCEP4 vector
T1 sequence: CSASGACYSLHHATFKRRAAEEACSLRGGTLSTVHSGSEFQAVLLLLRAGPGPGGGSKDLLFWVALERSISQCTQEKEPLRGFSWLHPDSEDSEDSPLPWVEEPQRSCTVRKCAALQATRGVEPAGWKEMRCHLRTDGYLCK

T2: fusion protein comprising an amino acid fragment from 1st amino acid to 42nd amino acid in hCTLD (human, UniProt Q86T13 31-72)
T2 construct: also called N-terminal fragment of hCTLD-Fc (1-42); not shown: Fc
T2 chain: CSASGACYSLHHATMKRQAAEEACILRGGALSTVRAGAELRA

T3: recombinant human clec14a CTLD Fc fusion protein (hCTLD-Fc) (human, UniProt Q86T13 31-172)
T3 construct: also called human CTLD-Fc; wtCTLD-Fc; not shown: hinge and CH2-CH3 domain of human IgG1, encoded 3' of the cloning site of the modified pCEP4 vector
T3 sequence: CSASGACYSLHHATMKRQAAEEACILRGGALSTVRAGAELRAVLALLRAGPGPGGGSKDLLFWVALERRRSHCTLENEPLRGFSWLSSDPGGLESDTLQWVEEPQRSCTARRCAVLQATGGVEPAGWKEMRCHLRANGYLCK


Legend:
[1] = molecular target: T1, recombinant mouse clec14a CTLD Fc …; experiment: ELISA, coated mCTLD-Fc (25 nM), 67 nM IgG
Description: (§1) 25 nM recombinant hCTLD-Fc, mCTLD-Fc, or Fc fragment of IgG1 in PBS was added to the 96-wells of a microtiter plate. After incubation overnight at 37° C., plates were washed three times with PBS containing 0.05% (v/v) Tween 20 (PBST), and incubated with 3% (w/v) BSA in PBST for 1 hr at 37° C. Plates were then incubated with 67 nM clec14a-CTLD IgG in PBST containing 3% (w/v) BSA for 3 hr at 37° C. Plates were washed twice with PBST and incubated with horseradish […] (HRP)-conjugated anti-human lambda light chain antibody (Bethyl Laboratories, Montgomery, Tex., USA) diluted 1:1000) in PBST containing 3% (w/v) BSA, for 1 hr at 37° C.

[2] = molecular target: T2, fusion protein comprising an amino acid …; experiment: epitope mapping ELISA, coated fragment-Fc 10 µg/ml, IgG 10 µg/ml
Description: Each of 10 μg/ml hCTLD-Fc, Fc, or N-terminal or C-terminal fragments of hCTLD-Fc in PBS was added to 96-well plates. Plates were incubated overnight at 37° C., washed three times with PBS containing 0.05% (v/v) Tween 20 (PBST), and incubated with 3% (w/v) BSA in PBST for 1 hr at 37° C. Plates were incubated with 10 μg/ml clec14a-CTLD IgG in PBST containing 3% (w/v) BSA for 2 hr at 37° C. Following two times washings with PBST, horseradish […] (HRP)-conjugated anti-human lambda light chain antibody (1:1000; Bethyl Laboratories, TX, USA) in PBST containing 3% (w/v) BSA was incubated for 1 hr at 37° C.
For fine mapping of epitope, specificity of clec14a-CTLD IgGs to Clec14awtCTLD and the fragments of hCTLD-Fc (FIG. 10a) were tested by ELISA.

[3] = molecular target: T1, recombinant mouse clec14a CTLD Fc …; experiment: phage enzyme immunoassay (phage ELISA) on mCTLD-Fc
Description: (§2) A human synthetic scFv antibody library was precleared of Fc binders and screened by alternative biopanning with recombinant hCTLD-Fc or mCTLD-Fc. b-d. Ninety-six phage clones (1-96) displaying scFv were randomly selected and the supernatants were analyzed by phage ELISA. Reactivity of the selected scFv clones to human and mouse CTLDs was assayed by measuring absorbance at 450 nm. Arrows indicate scFv clones reactive to hCTLD-Fc (▪, black) and mCTLD-Fc (▪, grey), and not reactive to Fc (□). BSA ( ) served as a background control.
(§3) Three rounds of biopanning were carried out with immunotubes (Immuno™ tube maxisorp, Nunc, Rochester, N.Y., USA) or magnetic beads (Dynabeads M-270 epoxy, Invitrogen) coated with 4 μg recombinant human (hCTLD-Fc) or mouse (mCTLD-Fc) fusion protein to select clones with cross-species reactivity, as described previously (Barbas C F. Phage display: a laboratory manual. Cold Spring Harbor, N.Y.: Cold Spring Harbor Laboratory Press; 2001; Vestweber D. Lymphocyte trafficking through blood and lymphatic vessels: more than just selectins, chemokines and integrins. European Journal of Immunology. 2003; 33(5):1361-4). Ninety-six phage clones were randomly selected from colonies grown on output plates and tested for reactivity to human and mouse CTLDs by phage enzyme immunoassay. DNA of the final scFv clones was sequenced and classified as four scFv clones identified having different complementarity determining region sequences.

[4] = molecular target: T3, recombinant human clec14a CTLD Fc …; experiment: ELISA, coated hCTLD-Fc (25 nM), 67 nM IgG
Description: as §1

[5] = molecular target: T3, recombinant human clec14a CTLD Fc …; experiment: phage enzyme immunoassay (phage ELISA) on hCTLD-Fc
Description: as §2
as §3, with “DNA of the final scFv clones was sequenced and classified as four scFv clones identified having different complementarity determining region sequences.” left out

Binder	binding result [1]	binding result [2]	binding result [3]	also measured
clec14a-CTLD IgG clone 1 (antibody, V domains shown, scFv converted to IgG; Lambda light chain, detected with anti-human lambda antibody) VH: EVQLLESGGGLVQPGGSLRLSCAASGFTFSGYDMSWVRQAPGKGLEWVSGIYPDGGNTYYADSVKGRFTISRDNSKNTLYLQMNSLRAEDTAVYYCARGATWWVLGPFDYWGQGTLVTVSS VL: QSVLTQPPSASGTPGQRVTISCTGSSSNIGNNSVTWYQQLPGTAPKLLIYADSHRPSGVPDRFSGSKSGTSASLAISGLRSEDEADYYCGAWDDSLSGYVFGGGTKLTVL	binds	binds	–	–
scFv clone 1 (phage-displayed) (scFv, V domains shown) VH: EVQLLESGGGLVQPGGSLRLSCAASGFTFSGYDMSWVRQAPGKGLEWVSGIYPDGGNTYYADSVKGRFTISRDNSKNTLYLQMNSLRAEDTAVYYCARGATWWVLGPFDYWGQGTLVTVSS VL: QSVLTQPPSASGTPGQRVTISCTGSSSNIGNNSVTWYQQLPGTAPKLLIYADSHRPSGVPDRFSGSKSGTSASLAISGLRSEDEADYYCGAWDDSLSGYVFGGGTKLTVL	–	–	binds	–
scFv clone 2 (phage-displayed) (scFv, V domains shown) VH: EVQLLESGGGLVQPGGSLRLSCAASGFTFSSYDMSWVRQAPGKGLEWVSVISPDSSSTYYADSVKGRFTISRDNSKNTLHLQMNSLRAEDTAVYYCARHTGWQSRPHTYYDYGMDVWGQGTLVTVSS VL: QSVLTQPPSASGTPGQRVTISCSGSSSNIGNNAVTWYQQLPGTAPKLLIYSDNHRPSGVPDRFSGSKSGTSASLAISGLRSEDEADYYCGTWDASLSGYVFGGGTKLTVL	–	–	binds	–
clec14a-CTLD IgG clone 3 (antibody, V domains shown, Lambda light chain) VH: EVQLLESGGGLVQPGGSLRLSCAASGFTFSDYYMSWVRQAPGKGLEWVSLISYDGGSTYYADSVKGRFTISRDNSKNTLYLQMNSLRAEDTAVYYCARSNDWFDYWGQGTLVTVSS VL: QSVLTQPPSASGTPGQRVTISCSGSSSNIGSNNVYWYQQLPGTAPKLLIYYDSQRPSGVPDRFSGSKSGTSASLAISGLRSEDEADYYCGAWDDSLSAYVFGGGTKLTVL	binds	–	–	binding result [4]: binds
clec14a-CTLD IgG clone 2 (antibody, V domains shown, Lambda light chain) VH: EVQLLESGGGLVQPGGSLRLSCAASGFTFSSYDMSWVRQAPGKGLEWVSVISPDSSSTYYADSVKGRFTISRDNSKNTLHLQMNSLRAEDTAVYYCARHTGWQSRPHTYYDYGMDVWGQGTLVTVSS VL: QSVLTQPPSASGTPGQRVTISCSGSSSNIGNNAVTWYQQLPGTAPKLLIYSDNHRPSGVPDRFSGSKSGTSASLAISGLRSEDEADYYCGTWDASLSGYVFGGGTKLTVL	binds	binds	–	–
scFv clone 3 (phage-displayed) (scFv, V domains shown) VH: EVQLLESGGGLVQPGGSLRLSCAASGFTFSDYYMSWVRQAPGKGLEWVSLISYDGGSTYYADSVKGRFTISRDNSKNTLYLQMNSLRAEDTAVYYCARSNDWFDYWGQGTLVTVSS VL: QSVLTQPPSASGTPGQRVTISCSGSSSNIGSNNVYWYQQLPGTAPKLLIYYDSQRPSGVPDRFSGSKSGTSASLAISGLRSEDEADYYCGAWDDSLSAYVFGGGTKLTVL	–	–	binds	binding result [5]: binds
